This data set relates to purified recombinant PCNA. Briefly: Vapor diffusion assay of anti-Flag immunoprecipitates with purified recombinant PCNA. It counts as biochemical, human. The note with it: anti-Flag immunoprecipitate from SK-Br-3 cells, 2 μg 6× His-PCNA. Here is the method: Vapor diffusion assay. The assay was performed basically as previously described (Murray, E. D., Jr. & Clarke, S. J Biol Chem 259, 10722-10732 (1984). MCF7 breast cancer cell extracts were assayed 1-2 h in the presence of [^3H-methyl]-SAM (NEN). Following incubation, extracts were equilibrated with 100 mM NaOH with 2% SDS and spotted onto filter paper folded into an accordion pleat and placed into the neck of a vial above scintillation fluid. ^3H-methanol present in the scintillation fluid was measured the following day (See FIG. 1).
Protein expression and purification. HiTrap phenyl Sepharose HP and Superdex S200 columns were purchased from GE Biosciences. Chromatography was performed using a Biologic DuoFlow (BioRad). […] The CBP tag lacks both aspartic and glutamic acids. […] (Podust et al., Biochemistry 34, 8869-8875 (1995). A eukaryotic expression vector expressing a Flag-Arm1 fusion was transfected into and transiently expressed in SK-Br-3 cells with Fugene 6 (Roche). Anti-Flag immunoprecipitations were performed with Anti-Flag M2 Affintiy Gel (Sigma) and detected by Western analysis using anti-DDK antibodies (Origene). PIP-affinity beads were generated by covalently coupling synthetic p21 PIP peptide (Anaspec) to CH Sepharose (GE Biosciences). […]

B1: Flag-Arm1: Flag-tagged C6orf211 protein fusion, PCNA-dependent carboxyl methyltransferase (SEQ ID NO: 33) (protein, listed as Homo sapiens)
chain: MAVVPASLSGQDVGSFAYLTIKDRIPQILTKVIDTLHRHKSEFFEKHGEEGVEAEKKAISLLSKLRNELQTDKPFIPLVEKFVDTDIWNQYLEYQQSLLNESDGKSRWFYSPWLLVECYMYRRIHEAIIQSPPIDYFDVFKESKEQNFYGSQESIIALCTHLQQLIRTIEDLDENQLKDEFFKLLQISLWGNKCDLSLSGGESSSQNTNVLNSLEDLKPFILLNDMEHLWSLLSNCKKTREKASATRVYIVLDNSGFELVTDLILADFLLSSELATEVHFYGKTIPWFVSDTTIHDFNWLIEQVKHSNHKWMSKCGADWEEYIKMGKWVYHNHIFWTLPHEYCAMPQVAPDLYAELQKAHLILFKGDLNYRKLTGDRKWEFSVPFHQALNGFHPAPLCTIRTLKAEIQVGLQPGQGEQLLASEPSWWTTGKYGIFQYDGPL
modifications: Flag tag
With B1, the “PCNA-dependent carboxyl methyltransferase activity” value is given as “Significant levels”.

The values are drawn from US20120258482A1, “PCNA […]” (INDIANA UNIVERSITY RESEARCH AND TECHNOLOGY CORPORATION, priority 2009, published 2012).
